# Reference: PMC5534098, “Modulation of chromatin structure by the FACT histone chaperone complex regulates HIV-1 integration” (Retrovirology, 2017)
# B1: LEDGF/p75-GST (natural protein)
# chain: not shown
# Molecular target: T1, FACT (FAcilitates Chromatin Transcription) complex, recombinant purified (human | , UniProt Q9Y5B9 1-1047; Q08945 1-709)
# T1 construct: also called FACT complex; source: recombinant, purified as reported before [17, 18]
# Assay: pull-down
# Details: both partners purified
# T1 sequence (Q9Y5B9 whole entry, chain 1 of 2): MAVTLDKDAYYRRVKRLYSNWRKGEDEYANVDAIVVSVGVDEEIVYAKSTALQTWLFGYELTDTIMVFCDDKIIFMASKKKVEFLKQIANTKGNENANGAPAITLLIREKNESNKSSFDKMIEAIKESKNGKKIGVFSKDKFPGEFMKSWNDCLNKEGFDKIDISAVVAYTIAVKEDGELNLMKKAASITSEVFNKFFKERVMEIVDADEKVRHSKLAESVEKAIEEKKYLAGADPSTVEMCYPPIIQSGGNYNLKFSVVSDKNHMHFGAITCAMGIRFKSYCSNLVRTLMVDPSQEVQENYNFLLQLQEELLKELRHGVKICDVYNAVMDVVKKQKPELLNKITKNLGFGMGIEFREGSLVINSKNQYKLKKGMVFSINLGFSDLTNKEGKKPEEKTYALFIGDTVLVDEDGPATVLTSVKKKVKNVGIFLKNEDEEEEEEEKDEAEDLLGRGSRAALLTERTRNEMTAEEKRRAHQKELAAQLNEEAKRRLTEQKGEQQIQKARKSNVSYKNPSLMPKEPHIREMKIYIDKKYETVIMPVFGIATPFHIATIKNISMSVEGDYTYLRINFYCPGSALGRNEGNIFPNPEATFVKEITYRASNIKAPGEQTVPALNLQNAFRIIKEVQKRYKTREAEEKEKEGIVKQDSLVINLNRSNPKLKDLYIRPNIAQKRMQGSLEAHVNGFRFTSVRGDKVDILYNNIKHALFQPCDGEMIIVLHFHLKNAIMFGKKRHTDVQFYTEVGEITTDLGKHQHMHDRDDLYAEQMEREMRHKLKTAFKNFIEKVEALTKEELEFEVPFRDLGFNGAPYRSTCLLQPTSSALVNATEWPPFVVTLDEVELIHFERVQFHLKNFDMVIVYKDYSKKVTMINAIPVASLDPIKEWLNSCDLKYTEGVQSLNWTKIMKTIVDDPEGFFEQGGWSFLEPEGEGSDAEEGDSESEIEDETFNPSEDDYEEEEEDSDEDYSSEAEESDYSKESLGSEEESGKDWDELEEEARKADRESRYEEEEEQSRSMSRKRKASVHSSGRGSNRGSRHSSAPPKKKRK
# T1 sequence (Q08945 whole entry, chain 2 of 2): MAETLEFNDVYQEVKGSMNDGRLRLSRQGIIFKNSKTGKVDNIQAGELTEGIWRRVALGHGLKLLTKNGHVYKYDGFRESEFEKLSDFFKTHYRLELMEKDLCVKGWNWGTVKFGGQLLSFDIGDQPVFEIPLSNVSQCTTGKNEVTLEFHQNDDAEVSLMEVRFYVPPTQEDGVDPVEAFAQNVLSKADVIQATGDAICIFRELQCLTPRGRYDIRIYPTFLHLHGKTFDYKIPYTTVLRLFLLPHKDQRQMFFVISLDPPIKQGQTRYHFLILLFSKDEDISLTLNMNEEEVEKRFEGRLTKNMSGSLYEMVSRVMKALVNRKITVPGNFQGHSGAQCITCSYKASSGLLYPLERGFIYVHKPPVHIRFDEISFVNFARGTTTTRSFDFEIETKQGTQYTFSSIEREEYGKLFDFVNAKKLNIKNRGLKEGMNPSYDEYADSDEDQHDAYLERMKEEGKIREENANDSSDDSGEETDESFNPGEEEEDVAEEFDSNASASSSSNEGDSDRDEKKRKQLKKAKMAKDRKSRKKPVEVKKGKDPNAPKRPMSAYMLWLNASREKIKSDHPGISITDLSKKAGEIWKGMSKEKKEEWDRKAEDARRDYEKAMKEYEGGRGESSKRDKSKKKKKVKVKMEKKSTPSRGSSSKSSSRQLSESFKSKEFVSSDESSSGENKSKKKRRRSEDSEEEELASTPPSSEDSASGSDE
binder,measurement,value
B1,binding result,binds
